Results reported in paper PMC8327961, “Nse5/6 inhibits the Smc5/6 ATPase and modulates DNA substrate binding” (The EMBO Journal, 2021).
Each block holds one molecule with its values, some of them ahead of it.

What was measured:
[1] = biological target: Smc5/6 hexamer (Smc5, Smc6, Nse1, Nse2, Nse3, Nse4) (Saccharomyces cerevisiae) (UniProt Q08204+Q12749+Q07913+P38632+Q05541+P43124); assay: fluorescence anisotropy; conditions: ATPase buffer: 10 mM Hepes-KOH pH 7.5, 150 mM K-OAc, 2 mM MgCl2, 20% glycerol; anisotropy at 25 C; plasmid pulldown bound at room temperature, high-salt buffer …
[2] = biological target: Smc5/6 octamer (hexamer plus Nse5/6) (Saccharomyces cerevisiae, UniProt Q08204;Q12749;Q07913;P38632;Q05541;P43124;Q03718;P40026 …); assay: fluorescence anisotropy; conditions: ATPase buffer: 10 mM Hepes-KOH pH 7.5, 150 mM K-OAc, 2 mM MgCl2, 20% glycerol; anisotropy at 25 C; plasmid pulldown bound at room temperature, high-salt buffer …
[3] = biological target: T1, Smc6 (Twin-Strep-tag removed, as in the octamer for lysine cross-linking) (S. cerevisiae, UniProt Q12749 1-1114); assay: cross-linking; XL-MS with PhoX (0.25 mM, 20 min, RT) on the octamer, 1.6 µM; ATPase buffer (10 mM Hepes-KOH pH 7.5, 150 mM potassium acetate, 2 mM MgCl2, 20% glycerol); without and with 2 mM ATP and 16 nM plasmid DNA; wild-type and Smc5(EQ)/Smc6(EQ) octamers; conditions: both partners purified
T1 construct: Smc6, S. cerevisiae; subunit of the octamer used for XL-MS; source: E. coli (DE3) Rosetta, purified as part of the hexamer; tag removed by HRV-3C before SEC of the octamer; not shown: Twin-Strep (after a 3C site), C-terminal, cleaved
T1 sequence (looked up): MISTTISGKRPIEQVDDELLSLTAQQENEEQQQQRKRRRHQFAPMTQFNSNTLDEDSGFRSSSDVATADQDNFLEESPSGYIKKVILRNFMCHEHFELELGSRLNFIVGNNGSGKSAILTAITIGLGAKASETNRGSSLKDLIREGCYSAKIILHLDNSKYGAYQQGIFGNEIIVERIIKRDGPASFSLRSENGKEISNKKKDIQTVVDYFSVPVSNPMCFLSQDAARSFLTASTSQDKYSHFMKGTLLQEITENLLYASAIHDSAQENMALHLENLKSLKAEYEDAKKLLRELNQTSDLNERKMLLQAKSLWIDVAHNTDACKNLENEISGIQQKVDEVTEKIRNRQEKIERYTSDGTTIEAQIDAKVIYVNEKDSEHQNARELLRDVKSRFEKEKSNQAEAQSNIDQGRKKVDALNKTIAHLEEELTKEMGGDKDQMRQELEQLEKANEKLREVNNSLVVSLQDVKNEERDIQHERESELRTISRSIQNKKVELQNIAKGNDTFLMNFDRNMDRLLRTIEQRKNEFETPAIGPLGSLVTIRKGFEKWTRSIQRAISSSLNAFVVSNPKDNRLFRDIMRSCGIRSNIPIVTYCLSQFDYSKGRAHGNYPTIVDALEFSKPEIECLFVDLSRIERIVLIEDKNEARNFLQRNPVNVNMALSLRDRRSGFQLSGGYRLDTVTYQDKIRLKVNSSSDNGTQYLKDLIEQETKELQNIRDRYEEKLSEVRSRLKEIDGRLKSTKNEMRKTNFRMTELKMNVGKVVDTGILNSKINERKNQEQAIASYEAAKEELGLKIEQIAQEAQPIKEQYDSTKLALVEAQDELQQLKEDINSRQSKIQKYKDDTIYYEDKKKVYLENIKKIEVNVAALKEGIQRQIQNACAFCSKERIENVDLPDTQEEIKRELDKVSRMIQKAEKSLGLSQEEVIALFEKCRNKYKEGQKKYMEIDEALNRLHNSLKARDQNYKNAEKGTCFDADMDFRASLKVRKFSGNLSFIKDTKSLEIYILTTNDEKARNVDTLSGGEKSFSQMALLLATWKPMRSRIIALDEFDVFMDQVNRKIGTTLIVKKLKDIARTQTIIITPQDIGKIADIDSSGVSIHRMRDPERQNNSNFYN

[4] = biological target: T1, Smc6 (Twin-Strep-tag removed, as in the …); assay: cross-linking; XL-MS with the lysine-reactive PhoX (0.25 mM, 20 min, RT) on the reconstituted octamer, 1.6 µM; salt buffer 20 mM Hepes-KOH pH 7.5, 250 mM NaCl; conditions: both partners purified
[5] = biological target: T2, Nse1/3/4 sub-complex (S. cerevisiae, UniProt Q07913 1-336; Q05541 1-303; P43124 1-402); assay: as above; conditions: both partners purified
T2 construct: Nse1, S. cerevisiae; Nse3, S. cerevisiae; Nse4, S. cerevisiae; used where the text names only the module as the partner of a cross-link and not which subunit; also called Nse1/3/4 module; Nse4/3/1 module; source: E. coli (DE3) Rosetta, purified as part of the hexamer and octamer; copies: + +
T2 sequence (looked up) 1: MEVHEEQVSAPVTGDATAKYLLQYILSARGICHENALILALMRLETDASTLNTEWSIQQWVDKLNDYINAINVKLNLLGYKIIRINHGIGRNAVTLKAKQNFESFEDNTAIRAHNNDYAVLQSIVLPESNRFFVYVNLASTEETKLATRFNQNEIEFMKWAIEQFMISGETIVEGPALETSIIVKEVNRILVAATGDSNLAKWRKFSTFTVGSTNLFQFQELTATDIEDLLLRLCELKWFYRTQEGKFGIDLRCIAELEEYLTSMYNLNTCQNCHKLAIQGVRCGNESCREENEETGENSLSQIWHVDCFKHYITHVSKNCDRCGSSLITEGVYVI
T2 sequence (looked up) 2: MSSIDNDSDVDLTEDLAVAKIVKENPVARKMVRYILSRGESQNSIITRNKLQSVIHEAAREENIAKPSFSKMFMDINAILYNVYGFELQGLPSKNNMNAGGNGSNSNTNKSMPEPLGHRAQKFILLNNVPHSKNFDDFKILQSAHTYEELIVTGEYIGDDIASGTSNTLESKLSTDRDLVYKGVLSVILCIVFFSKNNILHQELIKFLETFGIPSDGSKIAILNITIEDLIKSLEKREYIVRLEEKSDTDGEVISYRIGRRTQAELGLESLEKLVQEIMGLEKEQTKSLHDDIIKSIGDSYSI
T2 sequence (looked up) 3: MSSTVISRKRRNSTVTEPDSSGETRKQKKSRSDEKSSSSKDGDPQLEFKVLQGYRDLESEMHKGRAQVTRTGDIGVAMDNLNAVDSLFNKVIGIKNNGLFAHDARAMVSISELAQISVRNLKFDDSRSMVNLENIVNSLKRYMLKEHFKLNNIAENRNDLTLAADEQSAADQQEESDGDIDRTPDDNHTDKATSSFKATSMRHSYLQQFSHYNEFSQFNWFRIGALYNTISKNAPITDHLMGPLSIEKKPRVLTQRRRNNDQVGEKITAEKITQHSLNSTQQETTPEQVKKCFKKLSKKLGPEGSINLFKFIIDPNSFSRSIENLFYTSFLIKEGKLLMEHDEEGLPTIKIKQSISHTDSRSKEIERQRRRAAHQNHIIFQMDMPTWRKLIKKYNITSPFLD

Chain of Smc5/6 octamer (hexamer plus Nse5/6) (P40026 whole entry, one chain of several): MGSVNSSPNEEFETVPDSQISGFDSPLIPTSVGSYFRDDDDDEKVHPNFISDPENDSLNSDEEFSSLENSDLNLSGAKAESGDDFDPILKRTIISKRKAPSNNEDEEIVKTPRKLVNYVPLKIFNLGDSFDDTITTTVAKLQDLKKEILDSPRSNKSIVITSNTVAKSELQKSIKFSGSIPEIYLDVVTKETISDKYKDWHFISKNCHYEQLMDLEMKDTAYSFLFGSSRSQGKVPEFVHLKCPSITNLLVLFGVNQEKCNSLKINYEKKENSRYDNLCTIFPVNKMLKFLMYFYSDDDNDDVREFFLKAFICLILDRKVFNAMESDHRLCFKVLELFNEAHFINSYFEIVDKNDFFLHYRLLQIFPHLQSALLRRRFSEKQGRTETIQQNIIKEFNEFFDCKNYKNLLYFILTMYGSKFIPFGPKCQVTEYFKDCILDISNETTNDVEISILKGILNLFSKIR

Molecule: 40-mer ssDNA
- Kd [1]: 150 nM
- Kd [2]: 100 nM

B1: Nse4 (natural protein, S. cerevisiae, UniProt P43124 1-402, looked up)
chain: T2 sequence (looked up) 3
notes: Nse4, S. cerevisiae; also called kleisin Nse4; source: E. coli (DE3) Rosetta, co-expressed with the other subunits of the hexamer, purified as part of the complex
- binding result [3]: binds

B2: Smc5 (natural protein, S. cerevisiae, UniProt Q08204 1-1093, looked up)
chain: MTSLIDLGRYVERTHHGEDTEPRSKRVKIAKPDLSSFQPGSIIKIRLQDFVTYTLTEFNLSPSLNMIIGPNGSGKSTFVCAVCLGLAGKPEYIGRSKKVEDFIKNGQDVSKIEITLKNSPNVTDIEYIDARDETIKITRIITRSKRRSDYLINDYQVSESVVKTLVAQLNIQLDNLCQFLSQERVEEFARLKSVKLLVETIRSIDASLLDVLDELRELQGNEQSLQKDLDFKKAKIVHLRQESDKLRKSVESLRDFQNKKGEIELHSQLLPYVKVKDHKEKLNIYKEEYERAKANLRAILKDKKPFANTKKTLENQVEELTEKCSLKTDEFLKAKEKINEIFEKLNTIRDEVIKKKNQNEYYRGRTKKLQATIISTKEDFLRSQEILAQTHLPEKSVFEDIDIKRKEIINKEGEIRDLISEIDAKANAINHEMRSIQRQAESKTKSLTTTDKIGILNQDQDLKEVRDAVLMVREHPEMKDKILEPPIMTVSAINAQFAAYLAQCVDYNTSKALTVVDSDSYKLFANPILDKFKVNLRELSSADTTPPVPAETVRDLGFEGYLSDFITGDKRVMKMLCQTSKIHTIPVSRRELTPAQIKKLITPRPNGKILFKRIIHGNRLVDIKQSAYGSKQVFPTDVSIKQTNFYQGSIMSNEQKIRIENEIINLKNEYNDRKSTLDALSNQKSGYRHELSELASKNDDINREAHQLNEIRKKYTMRKSTIETLREKLDQLKREARKDVSQKIKDIDDQIQQLLLKQRHLLSKMASSMKSLKNCQKELISTQILQFEAQNMDVSMNDVIGFFNEREADLKSQYEDKKKFVKEMRDTPEFQSWMREIRSYDQDTKEKLNKVAEKYEEEGNFNLSFVQDVLDKLESEIAMVNHDESAVTILDQVTAELRELEHTVPQQSKDLETIKAKLKEDHAVLEPKLDDIVSKISARFARLFNNVGSAGAVRLEKPKDYAEWKIEIMVKFRDNAPLKKLDSHTQSGGERAVSTVLYMIALQEFTSAPFRVVDEINQGMDSRNERIVHKAMVENACAENTSQYFLITPKLLTGLHYHEKMRIHCVMAGSWIPNPSEDPKMIHFGETSNYSFD
notes: Smc5, S. cerevisiae; stood in the assays as a subunit of the hexamer or octamer; source: E. coli (DE3) Rosetta, co-expressed with the other subunits of the hexamer, purified as part of the complex
- binding result [4]: binds

B3: Nse5-AviTag (from Nse5-AviTag-3C-Twin-Strep, Twin-Strep removed) (natural protein, S. cerevisiae, UniProt Q03718 1-556, looked up)
chain: MDGALINSVLYVSPRNGAHYFVELTEKHLLAFEMLNSMCLLENYDHVLLFLECQFGKSHNLAVIPFDIILVLFTLSTLSEYYKEPILRANDPYNTSRETLSRRALKLLQKYLAILKEFDSEQYNLYDLELLRCQFFLAIDTLTPKKQKWGFDRFRRTKSESGVTYRQNASVDPELDQAKTFKNPYRSYISCLEQRNTILGNRLLNLKLNEPGEFINMILWTLSNSLQESTPLFLSSHEIWMPLLEILIDLFSCRQDYFIQHEVAQNVSKSLFVQRLSESPLAVFFESLNTRNFANRFSEYVFLNCDYKLPSDNYATPVHPVYNGENTIVDTYIPTIKCSPLYKSQKSLALRRKLIGSCFKLLLRVPDGHRLITPRIVADDVIQGISRTLASFNDILQFKKFFMTENLSQESYFIPLLAEGTLSEILKDTQECVVILTLVENLSDGVSFCNEVIGLVKSKCFAFTEQCSQASYEEAVLNIEKCDVCLLVLLRYLLHLIGTEAILDAKEQLEMLHAIEKNDSGRRQWAKALNLGNDPPLLYPIVSQMFGVHDKSVIIE
notes: Nse5, S. cerevisiae, full length; subunit of the octamer used for XL-MS; the AviTag lies before the 3C site and should remain; source: E. coli (DE3) Rosetta, co-expressed with Nse6, purified (StrepTrap, heparin, SEC); Twin-Strep removed by HRV-3C; not shown: Twin-Strep (after a 3C site), C-terminal, cleaved
- binding result [5]: binds
- binding result [4]: binds

Results, then the molecule that gave them:

- binding result [3]: binds
B4: Nse2 (natural protein, S. cerevisiae, UniProt P38632 1-267, looked up)
chain: MALNDNPIPKSVPLHPKSGKYFHNLHARDLSNIYQQCYKQIDETINQLVDSTSPSTIGIEEQVADITSTYKLLSTYESESNSFDEHIKDLKKNFKQSSDACPQIDLSTWDKYRTGELTAPKLSELYLNMPTPEPATMVNNTDTLKILKVLPYIWNDPTCVIPDLQNPADEDDLQIEGGKIELTCPITCKPYEAPLISRKCNHVFDRDGIQNYLQGYTTRDCPQAACSQVVSMRDFVRDPIMELRCKIAKMKESQEQDKRSSQAIDVL
notes: Nse2, S. cerevisiae; source: E. coli (DE3) Rosetta, co-expressed with the other subunits of the hexamer, purified as part of the complex

- binding result [3]: binds
B5: Nse3 (natural protein, S. cerevisiae, UniProt Q05541 1-303, looked up)
chain: T2 sequence (looked up) 2
notes: Nse3, S. cerevisiae; source: E. coli (DE3) Rosetta, co-expressed with the other subunits of the hexamer, purified as part of the complex
